The data set is described as follows: total protein half-life in vivo (active degradation + dilution); higher = more stable protein.
[1] abbreviates: E. coli NCM3722 delta-clpP delta-lon delta-hslV, growth: N-lim chemostat, doubling time 6 h.
[2] abbreviates: E. coli NCM3722 delta-clpP, growth: N-lim chemostat, doubling time 6 h.
Setting [3] is: E. coli NCM3722 delta-smpB, growth: N-lim chemostat, doubling time 6 h.
Where [4] appears, read: wild type E. coli NCM3722, growth: C-lim chemostat, doubling time 3 h.
[5] abbreviates: wild type E. coli NCM3722, growth: C-lim chemostat, doubling time 6 h.
[6] abbreviates: wild type E. coli NCM3722, growth: C-lim chemostat, doubling time 12 h.
The mark [7] stands for this setting: wild type E. coli NCM3722, growth: N-lim chemostat, doubling time 6 h.
[8] abbreviates: wild type E. coli NCM3722, growth: N-lim chemostat, doubling time 12 h.
The mark [9] stands for this setting: wild type E. coli NCM3722, growth: P-lim chemostat, doubling time 6 h.
The mark [10] stands for this setting: wild type E. coli NCM3722, growth: P-lim chemostat, doubling time 12 h.
Where [11] appears, read: E. coli NCM3722 delta-hslV, growth: N-lim chemostat, doubling time 6 h.
Setting [12] is: E. coli NCM3722 delta-lon, growth: N-lim chemostat, doubling time 6 h.

± gives the standard deviation of the averaged measurements.

On to “MMITLRKLPLAVAVAAGVMSAQAMAVDFHGYARSGIGWTGSGGEQQCFQTTGAQSKYRLGNECETYAELKLGQEVWKEGDKSFYFDTNVAYSVAQQNDWEATDPAFREANVQGKNLIEWLPGSTIWAGKRFYQRHDVHMIDFYYWDISGPGAGLENIDVGFGKLSLAATRSSEAGGSSSFASNNIYDYTNETANDVFDVRLAQMEINPGGTLELGVDYGRANLRDNYRLVDGASKDGWLFTAEHTQSVLKGFNKFVVQYATDSMTSQGKGLSQGSGVAFDNEKFAYNINNNGHMLRILDHGAISMGDNWDMMYVGMYQDINWDNDNGTKWWTVGIRPMYKWTPIMSTVMEIGYDNVESQRTGDKNNQYKITLAQQWQAGDSIWSRPAIRVFATYAKWDEKWGYDYTGNADNNANFGKAVPADFNGGSFGRGDSDEWTFGAQMEIWW”, for which the “total protein half-life in vivo” value is 6.61 h under setting [1]; more than 8 h under setting [2]; 6.71 ± 0.23 h under setting [3]; 3.38 ± 0.6 h under setting [4]; 6.85 ± 1.6 h under setting [5]; more than 16 h under setting [6]. In addition, the “total protein half-life in vivo” value was more than 8 h under setting [7], more than 16 h under setting [8], 7.548 ± 0.042 h under setting [9] and more than 16 h under setting [10].

Consider “MSDQIIARVSQSLAKEQSLESLVRQLLEMLEMVTDMESTYLTKVDVEARLQHIMFARNSQKMYIPENFTVSWDYSLCKRAIDENCFFSDEVPDRWGDCIAARNLGITTFLSTPIHLPDGSFYGTLCAASSEKRQWSERAEQVLQLFAGLIAQYIQKEALVEQLREANAALIAQSYTDSLTGLPNRRAIFENLTTLFSLARHLNHKIMIAFIDLDNFKLINDRFGHNSGDLFLIQVGERLNTLQQNGEVIGRLGGDEFLVVSLNNENADISSLRERIQQQIRGEYHLGDVDLYYPGASLGIVEVDPETTDADSALHAADIAMYQEKKHKQKTPFVAHPALHS”, for which the “total protein half-life in vivo” value under setting [4] was found to be 0.233 h.

As to “MGQEKLYIEKELSWLSFNERVLQEAADKSNPLIERMRFLGIYSNNLDEFYKVRFAELKRRIIISEEQGSNSHSRHLLGKIQSRVLKADQEFDGLYNELLLEMARNQIFLINERQLSVNQQNWLRHYFKQYLRQHITPILINPDTDLVQFLKDDYTYLAVEIIRGDTIRYALLEIPSDKVPRFVNLPPEAPRRRKPMILLDNILRYCLDDIFKGFFDYDALNAYSMKMTRDAEYDLVHEMEASLMELMSSSLKQRLTAEPVRFVYQRDMPNALVEVLREKLTISRYDSIVPGGRYHNFKDFINFPNVGKANLVNKPLPRLRHIWFDKAQFRNGFDAIRERDVLLYYPYHTFEHVLELLRQASFDPSVLAIKINIYRVAKDSRIIDSMIHAAHNGKKVTVVVELQARFDEEANIHWAKRLTEAGVHVIFSAPGLKIHAKLFLISRKENGEVVRYAHIGTGNFNEKTARLYTDYSLLTADARITNEVRRVFNFIENPYRPVTFDYLMVSPQNSRRLLYEMVDREIANAQQGLPSGITLKLNNLVDKGLVDRLYAASSSGVPVNLLVRGMCSLIPNLEGISDNIRAISIVDRYLEHDRVYIFENGGDKKVYLSSADWMTRNIDYRIEVATPLLDPRLKQRVLDIIDILFSDTVKARYIDKELSNRYVPRGNRRKVRAQLAIYDYIKSLEQPE [P0A7B1]”, the “total protein half-life in vivo” value reads like this: under setting [1], 6.92 ± 0.14 h; under setting [2], 6.36 ± 0.29 h; under setting [11], 6.79 ± 0.42 h; under setting [12], 6.1 ± 0.063 h; under setting [3], 6.038 ± 0.039 h; under setting [4], 3.29 ± 0.35 h. Moreover, the “total protein half-life in vivo” value under setting [5] is 6.27 ± 0.57 h; the “total protein half-life in vivo” value under setting [7] came to 5.94 ± 0.53 h; the “total protein half-life in vivo” value under setting [8] was determined as 13 ± 1.2 h; the “total protein half-life in vivo” value under setting [9] worked out at 6.65 ± 0.23 h; the “total protein half-life in vivo” value under setting [10] came to 13 ± 1.4 h.

As for “MKPMHIAMALLSAAMFFVLAGVFMGVQLELDGTKLVVDTASDVRWQWVFIGTAVVFFFQLLRPAFQKGLKSVSGPKFILPAIDGSTVKQKLFLVALLVLAVAWPFMVSRGTVDIATLTMIYIILGLGLNVVVGLSGLLVLGYGGFYAIGAYTFALLNHYYGLGFWTCLPIAGLMAAAAGFLLGFPVLRLRGDYLAIVTLGFGEIVRILLLNNTEITGGPNGISQIPKPTLFGLEFSRTAREGGWDTFSNFFGLKYDPSDRVIFLYLVALLLVVLSLFVINRLLRMPLGRAWEALREDEIACRSLGLSPRRIKLTAFTISAAFAGFAGTLFAARQGFVSPESFTFAESAFVLAIVVLGGMGSQFAVILAAILLVVSRELMRDFNEYSMLMLGGLMVLMMIWRPQGLLPMTRPQLKLKNGAAKGEQA”, the “total protein half-life in vivo” value under setting [1] is 5.59 ± 2.4 h; the “total protein half-life in vivo” value under setting [2] was 6.22 h; the “total protein half-life in vivo” value under setting [11] was found to be 5.84 ± 0.34 h; the “total protein half-life in vivo” value under setting [12] came to 5.83 ± 1.7 h; the “total protein half-life in vivo” value under setting [3] stood at 5.92 ± 1.1 h; the “total protein half-life in vivo” value under setting [5] was 5.79 ± 0.64 h. In addition, the “total protein half-life in vivo” value under setting [6] is 10.7 ± 1.2 h, the “total protein half-life in vivo” value under setting [8] was 12.2 h, the “total protein half-life in vivo” value under setting [9] was 6.09 ± 0.58 h and the “total protein half-life in vivo” value under setting [10] came to 10.7 ± 0.3 h.

“MLLNMMCGRQLSAISLCLAVTFAPLFNAQADEPEVIPGDSPVAVSEQGEALPQAQATAIMAGIQPLPEGAAEKARTQIESQLPAGYKPVYLNQLQLLYAARDMQPMWENRDAVKAFQQQLAEVAIAGFQPQFNKWVELLTDPGVNGMARDVVLSDAMMGYLHFIANIPVKGTRWLYSSKPYALATPPLSVINQWQLALDKGQLPTFVAGLAPQHPQYAAMHESLLALLCDTKPWPQLTGKATLRPGQWSNDVPALREILQRTGMLDGGPKITLPGDDTPTDAVVSPSAVTVETAETKPMDKQTTSRSKPAPAVRAAYDNELVEAVKRFQAWQGLGADGAIGPATRDWLNVTPAQRAGVLALNIQRLRLLPTELSTGIMVNIPAYSLVYYQNGNQVLDSRVIVGRPDRKTPMMSSALNNVVVNPPWNVPPTLARKDILPKVRNDPGYLESHGYTVMRGWNSREAIDPWQVDWSTITASNLPFRFQQAPGPRNSLGRYKFNMPSSEAIYLHDTPNHNLFKRDTRALSSGCVRVNKASDLANMLLQDAGWNDKRISDALKQGDTRYVNIRQSIPVNLYYLTAFVGADGRTQYRTDIYNYDLPARSSSQIVSKAEQLIR”: the “total protein half-life in vivo” value by setting is: under setting [1], 5.42 ± 0.21 h; under setting [2], 5.32 ± 1 h; under setting [11], 5.764 ± 0.032 h; under setting [12], 5.39 ± 0.3 h; under setting [3], 4.989 ± 0.017 h; under setting [4], 3.03 ± 0.053 h. Besides, the “total protein half-life in vivo” value under setting [5] turned out to be 6.5 ± 0.17 h; the “total protein half-life in vivo” value under setting [6] turned out to be 12.2 ± 1.1 h; the “total protein half-life in vivo” value under setting [7] is 5.57 ± 0.65 h; the “total protein half-life in vivo” value under setting [8] came to 8.84 ± 0.75 h; the “total protein half-life in vivo” value under setting [9] is 4.75 ± 0.52 h; the “total protein half-life in vivo” value under setting [10] was 9.2 ± 1.2 h.

In the case of “MSWQEKINAALDARRAADALRRRYPVAQGAGRWLVADDRQYLNFSSNDYLGLSHHPQIIRAWQQGAEQFGIGSGGSGHVSGYSVVHQALEEELAEWLGYSRALLFISGFAANQAVIAAMMAKEDRIAADRLSHASLLEAASLSPSQLRRFAHNDVTHLARLLASPCPGQQMVVTEGVFSMDGDSAPLAEIQQVTQQHNGWLMVDDAHGTGVIGEQGRGSCWLQKVKPELLVVTFGKGFGVSGAAVLCSSTVADYLLQFARHLIYSTSMPPAQAQALRASLAVIRSDEGDARREKLAALITRFRAGVQDLPFTLADSCSAIQPLIVGDNSRALQLAEKLRQQGCWVTAIRPPTVPAGTARLRLTLTAAHEMQDIDRLLEVLHGNG”, the “total protein half-life in vivo” value reads like this: under setting [1], 4.06 ± 0.98 h; under setting [2], 3.57 ± 0.11 h; under setting [11], 3.29 ± 0.14 h; under setting [12], 3.88 ± 0.17 h; under setting [3], 3.54 ± 0.15 h; under setting [4], 3.07 ± 0.22 h. Further, the “total protein half-life in vivo” value by setting is: under setting [5], 5.16 ± 0.21 h; under setting [6], 8.97 ± 0.33 h; under setting [7], 3.58 ± 0.21 h; under setting [8], 5.24 ± 0.38 h; under setting [9], 5.643 ± 0.044 h; under setting [10], 10.9 ± 0.2 h.

“MRFAIVVTGPAYGTQQASSAFQFAQALIADGHELSSVFFYREGVYNANQLTSPASDEFDLVRAWQQLNAQHGVALNICVAAALRRGVVDETEAGRLGLASSNLQQGFTLSGLGALAEASLTCDRVVQF”: the “total protein half-life in vivo” value is, setting by setting: under setting [1], 5.11 h; under setting [2], 4.58 h; under setting [3], 3.44 h; under setting [7], 4.52 h; under setting [9], 6.11 h; under setting [10], more than 16 h.

Values taken from the supplement of paper PMC11246515.
